Experimental findings from patent US20240425607A1, “IL-18BP ANTAGONIST ANTIBODIES AND THEIR USE IN MONOTHERAPY AND COMBINATION THERAPY IN THE TREATMENT OF CANCER” (Compugen Ltd., priority 2023, published 2024) are described below.

A short description of one series: SEC-HPLC % monomer. Type of series: physicochemical. As to conditions: optimized antibodies. As for the experimental part: A TSKgel SuperSW mAb HTP column (22855) was used for fast SEC analysis of mammalian produced mAbs at 0.4 mL/min with a cycle time of 6 min/run. 200 mM Sodium Phosphate and 250 mM Sodium Chloride was used as the mobile phase.
In general terms: Size exclusion chromatography separates by hydrodynamic size, large species first.

The test system of the next series is whole blood. Put plainly: Whole blood loop assay (ID.Flow). The series is classed as cell-based, human. As to conditions: blood of six healthy volunteers, 24 hr. As for the experimental part: Flow, an ex vivo system that mimics the human blood circulation. Fresh whole blood was taken from six healthy volunteers and immediately transferred to a whole blood loop system. The test items were administered, and the blood was set to circulate at 37° C. to prevent clotting. Blood samples collected at the 24 hr time point were analyzed for hematology and flow cytometry parameters and then processed to plasma for cytokine analysis. The anti-CD52 antibody Alemtuzumab was included as a reference antibody with manageable cytokine release in the clinic.

Series [1] in a line: Fab Tm by dynamic scanning fluorimetry (DSF). The series is classed as physicochemical. As to conditions: optimized antibodies. How it is done: 10 μL of 20× Sypro Orange is added to 20 μL of 0.2-1 mg/mL mAb or Fab solution. A RT-PCR instrument (BioRad CFX96 RT PCR) is used to ramp the sample plate temperature from 40 to 95° C. at 0.5° C. increment, with 2 min equilibrate at each temperature. The negative of first derivative for the raw data is used to extract Tm.

The target in series [2] is T1, recombinant human IL18-BP (Homo sapiens, UniProt O95998).
T1 construct: purchased R&D systems 119-BP
T1 sequence (O95998 31-194): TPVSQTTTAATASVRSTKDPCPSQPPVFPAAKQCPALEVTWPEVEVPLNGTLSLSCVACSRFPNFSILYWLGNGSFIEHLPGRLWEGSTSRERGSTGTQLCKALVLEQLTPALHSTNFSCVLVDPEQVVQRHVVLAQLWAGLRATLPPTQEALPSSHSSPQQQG
Put plainly: MEL624:TIL assay. The series is classed as cell-based. As to conditions: rhIL-18 30 ng/ml + rhIL-18BP 1 μg/ml, vs isotype control. How it is done:
Human MEL624 cells were thawed and grown in DMEM with 10% FBS, 1% Glutamax, 1% Penicillin-Streptomycin Solution and 1% HEPES buffer. The cells were then seeded at 75 k cells/well in a 96 well plate in the assay medium (IMDM with 10% human serum, 1% Glutamax, 1% MEM eagle, 1% Sodium Pyruvate and 1% Penicillin-Streptomycin Solution) and incubated 1 hour in 37° C., 5% CO2 incubator before co-culture with human tumor infiltrating lymphocytes that were previously expanded using known melanoma antigens (TILs). Human TILs were thawed in full TIL media and 75 k cells/well were co-cultured with the MEL624 cells to create an effector: target ratio of 1:1. The co-cultured cells were then treated with rhIL-18 (30 ng/ml) and rhIL-18BP (1 μg/ml) for 30 min in 37° C., 5% CO2 incubator to allow IL-18:IL-18BP complex formation. After 30 minutes, anti-human IL-18BP mAb (ADI-71722, dose titration, 30 μg/ml-0.01 μg/ml, dilution factor of 1:3) or relevant isotype control (hIgG1 30 μg/ml) were added to the co-culture to examine its capability to restore IL-18 activity. Cells and all added solutions were prepared in full assay medium to a final volume of 200 μl/well. Plates were incubated for 24 hours in 37° C., 5% CO2 incubator, after which the supernatant was collected for cytokine secretion evaluation. All tests were done in triplicates and each repeated with TIL four donors. […]

The target in series [3] is T1, recombinant human IL18-BP. Put plainly: CMV recall assay. The series is classed as cell-based. How it is done: Human MEL-624 overexpressing PD-L1 cells were thawed and loaded with CMV pp65 peptide (0.03 μg/ml). The cells were seeded at 100K/well in a 96 well plate and incubated for 30 minutes in 37° C., 5% C02 incubator with a combination rhIL-18 (30 ng/ml, R&D systems, 9124-IL/CF) and rhIL-18BP-Fc chimeric protein (2 μg/ml, R&D systems 119-BP) to allow IL-18+IL-18BP complex formation. After 30 minutes, anti-human IL-18BP (ADI-71722), anti-human PVRIG, anti-human TIGIT (anti-TIGIT), anti-human PD1 (Pembrolizumab) or relevant isotype control (hIgG4) were added to the culture to examine their capability to restore IL-18 activity. All antibodies were added to a final concentration of 10 μg/ml. 30 minutes post incubation with antibodies, thawed CMV-reactive T-cells were added to the culture. Cells and all added solutions were prepared in full IMDM (IMDM media with 10% human serum, 1% Glutamax, 1% MEM eagle, 1% sodium pyruvate, and 1% Penicillin-Streptomycin Solution) to a final volume of 200 μl/well. Plates were incubated for 24 hours in 37° C., 5% C02 incubator, after which the supernatant was collected for IFNγ secretion evaluation. All tests were done in triplicates and each repeated with three donors.
MEL624 cells that overexpress PD-L1 were loaded with CMV peptide pp65. […] CMV-specific T-cells were then added to the culture and IFNg secretion was measured after an overnight incubation.

In series [4] the target is T2, human IL18BP-Fc binding to human IL-18 (Homo sapiens, UniProt O95998).
T2 sequence (O95998 31-194): T1 sequence (O95998 31-194)
The experiment in a line: Blocking of hIL18BP-hIL-18 interaction by ELISA, IL18BP plate bound. As to conditions: 1 ng/ml human IL-18, compared with clone W19089C. How it is done:
This assay was utilized to identify anti-human IL18BP Abs that inhibit the binding interaction between human IL18BP- and its counterpart, human IL-18. […] Human IL18BP-Fc protein was coated on the wells of a high binding plate overnight at 4° C. (1 μg/ml, 100 μl/well volume). Plates were washed three times with PBS-T buffer (1×PBS pH 7.4, 0.05% Tween20) incubated with 250 μL blocking buffer (2.5% skim milk in PBS) at room temperature (RT) for 2 hr. Blocking buffer was removed and plates were washed three times with PBS-T buffer. Plate-bound ligands were incubated with anti-human IL18BP Abs in 1% BSA in PBS buffer two times serially diluted (2.5-0.019 μg/ml, 100 μL/well volume) at RT for 1 h. Plates were washed one time with PBS. Plate-bound ligands were incubated with human IL-18 (cat. 9124-IL, R&D) in 1% BSA in PBS buffer (1 ng/ml, 100 μL/well volume) at RT for 1 h. Plates were washed three times with PBS-T (0.05% Tween20 in PBS). Biotinylated anti-IL18 detection antibody, cat. D045-6, R&D 1:1000 in 1% BSA in PBS buffer was added (100 μL/well). This was incubated at RT for 1 hr, and plates were washed again. Peroxidase Streptavidin, Jackson, cat. 016-030-084 1:1000 in 2.5% skim milk in PBS was added (100 μL/well) for 1 hr at RT. […] The HRP reaction was stopped by adding 50 μL 1N HCl and absorbance signals at 450 nm were read on a luminescence Reader-EnSpire (Perkin Elmar). […]

In series [5] the target is T3, human IL-18-BP : human IL-18 complex (Homo sapiens, UniProt O95998).
T3 construct: purchased R&D systems 119-BP
T3 sequence (O95998 31-194): T1 sequence (O95998 31-194)
The experiment in a line: Competition ELISA with complex of soluble IL18-IL18BP. Type of series: binding. As to conditions: ADI-66716 vs MAB1191. As for the experimental part:
This assay was utilized to identify anti-human IL18BP Abs that inhibit the binding interaction between human IL18BP- and its counterpart, human IL-18. Commercial Ab anti human IL18BP (Clone 136007, cat. MAB1191, R&D systems) and ADI-66716 were tested for inhibition of human IL18BP protein binding to IL-18 by ELISA. Human IL18BP antibody (cat.AF 119, R&D) was coated on the wells of a high binding plate overnight at 4° C. (1 ug/ml, 100 μl/well volume). Plates were washed three times with PBS-T buffer (1×PBS pH 7.4, 0.05% Tween20) incubated with 250 μL blocking buffer (2.5% skim milk in PBS) at room temperature (RT) for 2 hr. Blocking buffer was removed and plates were washed three times with PBS-T buffer. Complex pre-formed 1 hour at 37° C. with 0.25 nM human IL-18-BP (R&D, cat. 119BP) and 3 nM Human IL-18 Biotin (9124-IL, R&D) in 1% BSA in PBS buffer. Complex was incubated for 2 hrs at RT together with anti-human IL18BP Abs (in 1% BSA in PBS buffer two times serially diluted. 4-0.06 μg/ml, 100 μL/well volume). Peroxidase Streptavidin, Jackson, cat. 016-030-084 1:1000 in 2.5% skim milk in PBS was added (100 μL/well) for 1 hr at RT. Plates were washed three times with PBS-T buffer (1×PBS pH 7.4, 0.05% Tween20). […] The HRP reaction was stopped by adding 50 μL 1N HCl and absorbance signals at 450 nm were read on a luminescence Reader-EnSpire (Perkin Elmar). […]

In series [6] the test system is B16/Db-hmgp100 melanoma model. Put plainly: B16/Db-hmgp100 syngeneic tumor model. As to conditions: 10 mg/kg from day 4.
Experimental: B16/Db-hmgp100 cells were kindly provided by Dr. Hanada et al. (HHS agency) and were licensed from NIH. B16/Db-hmgp100 cells were generated by double transduction of B16F10 with H-2Db and a retrovirus that encodes chimeric mouse gp100 that is comprised of the human gp10025-33 and the rest of mouse gp100. Cells were cultured in RPMI 1640 (Biological Industries, 01-100-1A) with 10% FBS (Biological Industries, 04-127-1A), and 100 g/mL penicillin/streptomycin (Biological Industries, 03-031-1B), 1% Glutamax (Life technologies, 35050-038), 1% Sodium pyruvate (Biological Industries, 03-042-1B), 0.01% 2-mercaptoethanol (Life technologies, 31350-010), 10 μg/ml Blasticidin (InvivoGen, ant-bl-05). 1×10^5 B16/Db-hmgp100 cells subcutaneously into the back right flank of mice.
In both CT26 and B16/Db-hmgp100 models mAb administration started at day 4 (mono treatment) or day 7 post tumor inoculation when tumors were at volume of 30-50 mm^3 (combo treatment); and was given intra-peritoneal (i.p.) in a final volume/injection of 200 μl, for 3 wks for a total of 6 administrations. Tumor growth was measured with electronic caliper every 2-3 days and was reported as 0.5×W^2×L mm^3. […]
At day 4 post tumor inoculation mice were treated with mAbs (as detailed below) injected on day 4, 7, 11, 14, 18 and 21 post inoculation. Tumor growth was measured with caliper every 2-3 days. […]

Positions count from the first letter of the chain named.

B1: ADI-71709: anti-IL18-BP antibody, sequences in FIG. 2A; 66650 lineage (antibody, V domains shown)
VH: QVQLVQSGAEVKKPGASVKVSCEASGYTFDIYAVHWVRQAPGQRLEWMGWIHAGTGATKYSQKFQGRVTITRDTSASTAYMELSSLRSEDTAVYYCARGLGEVGPTGTSWFDPWGQGTLVTVSS
VL: DIQMTQSPSTLSASVGDRVTITCRASQSISSWLAWYQQKPGKAPKLLIYEASSLESGVPLRFSGSGSGTEFTLTISSLQPDDFATYYCQQYRQSPFTFGGGTKVEIK
Regarding B1, in “SEC-HPLC % monomer”, the “SEC-HPLC, % monomer” value worked out at 97.6%. Moreover, the “Signs of systemic immune activation, in combination with Nivolumab” value in the series on whole blood is listed as “did not show signs of systemic immune activation”. The “Signs of systemic immune activation, as mono” value in the series on whole blood (hematology, flow cytometry, cytokines) is given as “did not show signs of systemic immune activation”. Besides, the “Fab Tm (DSF, ° C.)” value in series [1] was 71.5 °C.

B2: ADI-71722: anti-IL18-BP antibody, sequences in FIG. 2D; 66670 lineage (antibody, V domains shown)
VH: QVQLVQSGAEVKKPGSSVKVSCKASGGTFSEYPISWVRQAPGQGLEWMGGIIPGAGTAIYAQKFQGRVTITADESTSTAYMELSSLRSEDTAVYYCARGRHFHETWGQGTLVTVSS
VL: DIQMTQSPSSVSASVGDRVTITCRASQGISSWLAWYQQKPGKAPKLLIYAASSLQSGVPSRFSGSGSGTDFTLTISSLQPEDFATYYCQQVYRFPWTFGGGTKVEIK
For the molecule B2, in the series “SEC-HPLC % monomer”, the “SEC-HPLC, % monomer” value is recorded as 95.9%. Moreover, the “IFNγ secretion from TILs” value in series [2] is “fully restore IL-18 activity”. For the same molecule, in series [1], the “Fab Tm (DSF, ° C.)” value was 73.0 °C. The “IFNγ secretion by CMV-reactive T-cells, as mono” value in series [3] (10 μg/ml, rhIL-18 30 ng/ml + rhIL-18BP 2 μg/ml) is “fully restore IFNγ secretion”. Besides, in series [3] (combined with Pembrolizumab, anti-PVRIG or anti-TIGIT, each 10 μg/ml, vs mono), the “IFNγ secretion by CMV-reactive T-cells, in combination” value is “in a more potent manner”. Besides, the “Blocking effect on binding of human IL18BP to human IL-18” value in series [4] was “superior to Biolegend Ab”.

B3: ADI-66716: anti-IL18-BP antibody, sequences in FIG. 2N; parental (antibody, V domains shown)
VH: QLQLQESGPGLVKPSETLSLTCTVSGGSISSSDYYWGWIRQPPGKGLEWIGSIYYSGSTYYNPSLKSRVTISVDTSKNQFSLKLSSVTAADTAVYYCARGPHRQVFDYWGQGTLVTVSS
VL: B2 VL with V91G, Y92S, R93S, W96Y
Turning to B3, the “Blocking of IL18-IL18BP complex formation” value in series [5] is recorded as “superior blocking effect to R&D antibody”.

B4: anti-PVRIG: Anti PVRIG mAb 407 mAb mouse IgG1, BOJ-5G4-F4 (antibody, V domains shown)
VH: QVQLQQSGAELAKPGSSVMISCKASGYTFTNYAVHWIKQTTGQALEWTGYIAPGSGVTKYNEKFKGKATLTVDKSSTTAYMQLSSLTPVDTAVYYCASGTTRFAYWGQGTLVTVSS
VL: DIVLTQSPALAVSLGQRATISCRASQSVSLSSYNLMQWYQQKPGQEPKILIYDASNLPSGIPARFSGSGSGTDFTLTIDPVQADDIATYYCQQSKDDPLTFGSGTKLEIK
B4: the “Tumor growth, anti-PVRIG monotherapy” value in series [6] is on record as “comparable tumor growth to mice treated with isotype control mAbs”.
